Experimental data as given in the supplement of paper PMC10567573.

B1: MCOLN1 (parent)
chain: EEEDLRRRLKYFFMSPCDKFRAKG

Variants of: B1
Test: protein stability index of a GFP-peptide fusion (GPS, HEK-293T) (PSI 1-6); higher = more stable
Details: c terminus: a fixed tail appended
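Note: lentivirally expressed fusions sorted by FACS into six bins by GFP to DsRed ratio, PSI derived from sequencing read proportions per bin multiplied by bin number.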

Protein stability index: each site, then its substitutions
M14: F 2.83; Q 3.04; P 3.16; K 3.14; L 2.14; D 3.23; C 2.24; S 2.96; G 3.56; R 2.73; Y 2.23; I 2.87; W 3.05; V 2.66; E 2.65
P16: F 2.2; N 2.11; T 2.68; G 1.92; I 1.95; H 2.09; A 2.12; W 2.19; Y 2.39; E 1.87; M 1.78; R 2.26
E2: S 1.86; D 1.92; M 2.58; Q 2.27; Y 1.94; I 2.21; W 4.34; T 1.72; G 1.67; P 2.23
C17: F 2.1; G 2.69; L 2.19; S 2.54; I 2.59; D 3.08; K 2.1; R 1.58; P 2.9; A 2.21; T 2.19; H 2.61; E 3.23; M 1.97
D4: S 1.42; I 1.71; W 1.44; R 2.23; V 1.74; C 1.8; H 2.04; G 3.22; Q 1.57; K 1.83; F 1.42; L 2.13; E 2.08; N 2.04; P 2.94
F20: A 3.82; G 3.04; W 2.21; T 3.45; K 3.58; C 2.9; V 3.06; H 2.61; P 3.59; D 3.79; R 3.04; S 3.58; L 3.33
L9: I 1.92; H 3.32; G 3.64; D 4.1; W 2.32; A 3.3; P 3.64; Q 3.7; K 2.89; M 3.27; T 3.33
D18: H 2.05; K 1.94; T 1.53; C 1.83; V 2.44; I 2.49; E 1.94; M 2.35; N 1.77; R 1.93; A 1.91; S 2.18; G 2.06; Q 2.2
R21: C 2.65; M 2.72; I 2.51; N 3.01; Y 2.54; D 3.15; H 3.28; P 3.09; T 3.05; L 2.19; W 1.81; F 2.4; S 3.1
A22: T 2.19; K 2.5; W 1.36; H 2.52; G 2.67; Q 2.13; M 2.13; L 1.85; C 1.97; E 2.18; I 1.91; Y 1.88; R 1.95; S 2.27
F13: D 3.22; S 3.37; W 3; N 3.77; K 3.23; C 3.8; Y 3.81; I 3.15; H 3.75; M 2.67; R 3.54; E 3.74; T 3.61; A 3.88
R7: E 3.33; V 2; M 1.55; F 2.44; K 2.63; T 2.65; P 3.33; D 3.01; Q 2.52; I 2.39; W 1.91; S 2.82; L 2.29; H 2.73
K23: D 3.56; G 1.84; L 1.86; Q 2.59; M 1.33; F 1.64; T 2.31; E 2.47
